Measured values reported in article PMC11255334, “Acetyl-CoA synthetase activity is enzymatically regulated by lysine acetylation using acetyl-CoA or acetyl-phosphate as donor molecule” (Nature Communications, 2024).

B4: Bacillus subtilis AMP-forming acetyl-CoA synthetase AcsA (enzyme, UniProt P39062 1-572, looked up)
chain: MNLKALPAIEGDHNLKNYEETYRHFDWAEAEKHFSWHETGKLNAAYEAIDRHAESFRKNKVALYYKDAKRDEKYTFKEMKEESNRAGNVLRRYGNVEKGDRVFIFMPRSPELYFIMLGAIKIGAIAGPLFEAFMEGAVKDRLENSEAKVVVTTPELLERIPVDKLPHLQHVFVVGGEAESGTNIINYDEAAKQESTRLDIEWMDKKDGFLLHYTSGSTGTPKGVLHVHEAMIQQYQTGKWVLDLKEEDIYWCTADPGWVTGTVYGIFAPWLNGATNVIVGGRFSPESWYGTIEQLGVNVWYSAPTAFRMLMGAGDEMAAKYDLTSLRHVLSVGEPLNPEVIRWGHKVFNKRIHDTWWMTETGSQLICNYPCMDIKPGSMGKPIPGVEAAIVDNQGNELPPYRMGNLAIKKGWPSMMHTIWNNPEKYESYFMPGGWYVSGDSAYMDEEGYFWFQGRVDDVIMTSGERVGPFEVESKLVEHPAIAEAGVIGKPDPVRGEIIKAFIALREGFEPSDKLKEEIRLFVKQGLAAHAAPREIEFKDKLPKTRSGKIMRRVLKAWELNLPAGDLSTMED
notes: AMP-forming acetyl-CoA synthetase AcsA, Bacillus subtilis, UniProt P39062; synthetic gene codon optimized for E. coli; also called AcsA wildtype; non-acetylated AcsA; source: E. coli BL21 (DE3), pET45b(+), purified (HisTrap FF, Ni2+)

Legend:
AcsA•AcuA complex = target: T1, AcsA•AcuA complex (Bacillus subtilis, UniProt P39065); assay: lysine acetylation of AcsA K549, anti-AcK immunoblot and SEC; type: biochemical
T1 construct: both N-terminally His6-tagged, E. coli BL21 (DE3); AcuA 25,484 g/mol, monomer alone; apparent heterotetramer; AcsA K549 is the acetyl acceptor; with Acetyl-coenzyme A synthetase (AMP-forming)
T1 sequence (P39065 whole entry, one chain of several): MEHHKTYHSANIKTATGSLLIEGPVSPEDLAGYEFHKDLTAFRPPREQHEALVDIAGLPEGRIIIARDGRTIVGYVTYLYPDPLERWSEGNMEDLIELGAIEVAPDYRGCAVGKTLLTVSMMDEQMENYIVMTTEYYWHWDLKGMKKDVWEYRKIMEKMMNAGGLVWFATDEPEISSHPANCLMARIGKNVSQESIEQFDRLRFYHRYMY

[1] = target: B4; assay: SEC; analytical SEC of equimolar AcsA and AcuA (wild type or mutants), incubated 30 min at room temperature, Superdex 200 10/300 GL, 50 mM Tris/HCl pH 8, 50 mM KCl, 2 mM β-mercaptoethanol; 100 µl of 50–100 µM; without ligand or with a tenfold molar excess of CoA or AcP alone; conditions: both partners purified
[2] = target: the molecule itself; assay: SEC; analytical SEC of the single proteins, Superdex 200 10/300 GL, 50 mM Tris/HCl pH 8, 50 mM KCl, 2 mM β-mercaptoethanol; 100 µl of 50–100 µM injected; MW from a calibration curve
[3] = target: the molecule itself; assay: SEC; analytical SEC of the preformed equimolar AcsA•AcuA complex pretreated with a tenfold molar excess of acetyl-CoA (excess also varied), 30 min at room temperature; fractions checked by anti-AcK immunoblot and Ponceau S

CC(=O)SCCNC(=O)CCNC(=O)[C@H](O)C(C)(C)COP(=O)(O)OP(=O)(O)OC[C@H]1O[C@@H](n2cnc3c(N)ncnc32)[C@H](O)[C@@H]1OP(=O)(O)O [acetyl-CoA]
lysine acetylation of AcsA K549, anti-AcK immunoblot and SEC (AcsA•AcuA complex; 200 µM acetyl-CoA, AcuA 5 µM, AcsA 20 µM, acetyltransferase activity): addition of acetyl-CoA to AcsA and AcuA resulted in a strong acetylation of AcsA

CC(=O)OP(=O)(O)O [AcP]
lysine acetylation of AcsA K549, anti-AcK immunoblot and SEC (AcsA•AcuA complex; intrinsic phosphotransacetylase activity, AcP with CoA as needed co-substrate, 37 °C): upon addition of CoA and AcP, AcsA was strongly acetylated

B1: AcuA W140A (enzyme, Bacillus subtilis, UniProt P39065 1-210, looked up)
chain: MEHHKTYHSANIKTATGSLLIEGPVSPEDLAGYEFHKDLTAFRPPREQHEALVDIAGLPEGRIIIARDGRTIVGYVTYLYPDPLERWSEGNMEDLIELGAIEVAPDYRGCAVGKTLLTVSMMDEQMENYIVMTTEYYWHADLKGMKKDVWEYRKIMEKMMNAGGLVWFATDEPEISSHPANCLMARIGKNVSQESIEQFDRLRFYHRYMY
notes: AcuA, Bacillus subtilis, UniProt P39065, with W140A
binding result [1]: binds

B2: AcuA W140F (enzyme, Bacillus subtilis, UniProt P39065 1-210, looked up)
chain: MEHHKTYHSANIKTATGSLLIEGPVSPEDLAGYEFHKDLTAFRPPREQHEALVDIAGLPEGRIIIARDGRTIVGYVTYLYPDPLERWSEGNMEDLIELGAIEVAPDYRGCAVGKTLLTVSMMDEQMENYIVMTTEYYWHFDLKGMKKDVWEYRKIMEKMMNAGGLVWFATDEPEISSHPANCLMARIGKNVSQESIEQFDRLRFYHRYMY
notes: AcuA, Bacillus subtilis, UniProt P39065, with W140F
binding result [1]: binds

B3: AcuA E97Q/E135Q (enzyme, Bacillus subtilis, UniProt P39065 1-210, looked up)
chain: MEHHKTYHSANIKTATGSLLIEGPVSPEDLAGYEFHKDLTAFRPPREQHEALVDIAGLPEGRIIIARDGRTIVGYVTYLYPDPLERWSEGNMEDLIQLGAIEVAPDYRGCAVGKTLLTVSMMDEQMENYIVMTTQYYWHWDLKGMKKDVWEYRKIMEKMMNAGGLVWFATDEPEISSHPANCLMARIGKNVSQESIEQFDRLRFYHRYMY
notes: AcuA, Bacillus subtilis, UniProt P39065, with E97Q and E135Q; also called double mutant AcuA E97Q/E135Q
binding result [1]: binds

B4
stoichiometry N [2]: 2

B5: K549-acetylated Bacillus subtilis AcsA (enzyme, UniProt P39062 1-572, looked up)
chain: MNLKALPAIEGDHNLKNYEETYRHFDWAEAEKHFSWHETGKLNAAYEAIDRHAESFRKNKVALYYKDAKRDEKYTFKEMKEESNRAGNVLRRYGNVEKGDRVFIFMPRSPELYFIMLGAIKIGAIAGPLFEAFMEGAVKDRLENSEAKVVVTTPELLERIPVDKLPHLQHVFVVGGEAESGTNIINYDEAAKQESTRLDIEWMDKKDGFLLHYTSGSTGTPKGVLHVHEAMIQQYQTGKWVLDLKEEDIYWCTADPGWVTGTVYGIFAPWLNGATNVIVGGRFSPESWYGTIEQLGVNVWYSAPTAFRMLMGAGDEMAAKYDLTSLRHVLSVGEPLNPEVIRWGHKVFNKRIHDTWWMTETGSQLICNYPCMDIKPGSMGKPIPGVEAAIVDNQGNELPPYRMGNLAIKKGWPSMMHTIWNNPEKYESYFMPGGWYVSGDSAYMDEEGYFWFQGRVDDVIMTSGERVGPFEVESKLVEHPAIAEAGVIGKPDPVRGEIIKAFIALREGFEPSDKLKEEIRLFVKQGLAAHAAPREIEFKDKLPKTRSGKIMRRVLKAWELNLPAGDLSTMED
modifications: acetyl-lysine at K549
notes: AMP-forming acetyl-CoA synthetase AcsA, Bacillus subtilis, UniProt P39062, acetylated at K549 by AcuA; Formed in the sample from m1 and m2 before the SEC run; K549 is the major acceptor site by the K549R control; also called AcsA AcK549; acetylated AcsA; source: E. coli BL21 (DE3), purified; acetylated in vitro by AcuA with acetyl-CoA, or with AcP and CoA
stoichiometry N [3]: 2
